Among the data in patent US20050069530A1 are IC50 of sPLA2 enzyme inhibition (3H-labelled E. coli membranes as substrate) and Mean % Inhibition values, retold here.

The target of this test is human type IIA sPLA2 (human) (UniProt P14555). In words: cell-based or functional assay.
Sequence of human type IIA sPLA2 (human) (P14555 21-144): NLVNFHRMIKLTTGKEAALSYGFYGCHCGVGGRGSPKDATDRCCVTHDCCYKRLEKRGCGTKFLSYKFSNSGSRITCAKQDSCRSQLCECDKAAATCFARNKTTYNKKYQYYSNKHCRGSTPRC
D60, 65E-PIP (59-67) (peptide): the IC50 of sPLA2 enzyme inhibition (3H-labelled E. coli membranes as substrate) was 4.2 µM.

Substance PIP (56-67) (peptide) came in with a Mean % Inhibition at fixed peptide concentration [5 µM] of 34.2%.

Substance PIP (57-67) (peptide) had a Mean % Inhibition at fixed peptide concentration [5 µM] of 14.2%.

The substance PIP (58-67) (peptide) gave an IC50 of sPLA2 enzyme inhibition (3H-labelled E. coli membranes as substrate) of 3.67 µM and a Mean % Inhibition at fixed peptide concentration [5 µM] of 59.5%.

For the substance PIP (59-67) (peptide), the IC50 of sPLA2 enzyme inhibition (3H-labelled E. coli membranes as substrate) is 3.8 µM and the Mean % Inhibition at fixed peptide concentration [5 µM] was 56.4%.

Regarding PIP (60-67) (peptide), the IC50 of sPLA2 enzyme inhibition (3H-labelled E. coli membranes as substrate) came to 5.75 µM.
